Experimental data: article PMC9618136 (2022)

Target: AVR-Pii effector domain (residues 20 to 70), purified (Magnaporthe oryzae)
Assay: ITC

B1: OsExo70F2, N-terminally truncated, purified (domain or fragment)
chain: ISAAAFDAAEQLIQVWDGTPEALVFEATEDEVAEYLSAVDVAIEHLARGSGGGAGGAGSSSSSTAGRAGVAVQLAMARLEEELRHLMVRHAVPLDPTGLFFSLRRLSLGSMDDLDTSSEFDAATPHSIDVAPETARGGPLVNPFEDQVFDPVRPEAVDDLRAIADRMARAGYSRELADAYCGIRRDLLDEYLSALGVERLSIDEVQRIEWKHLNDKMKKWVQAVKTVVRVLLAGERRLCDQVLSVSDELREECFIESTKGCIMQILSFGDAVAVCPRSPEKLSRILDMYEALAEVIPEMKDLCLGSSGDGVISDVQANLDRLGDAIRGTLFEFGKVLQLESSRRAMTAGEIHPMTRYVMNYLRLLVVYSDTLDALLDDNADDQIDLARAEDQDQEHLESMTPLGKRLLKLISYLEANLEEKSKLYEDSALECIFSMNNLLYIVQKVRDSELGKILGDHWVKRRNGKIRQYSKSYLRISWMKVLSFLKDDGHGSGSGSSSGSGSGHSSSRMSIKEKFKNFNLAFEEIYRNQTTWKVPDPQLREELKISISENVIPAYRAFLGRYGSQVDGGRNSGKYIKYTPEDLESQLSDLFEGAPGPANHSRRRT
- Kd: < 1 nM
